This note sets out measurements from PMC5352143, “Lactoferrin binding protein B – a bi-functional bacterial receptor protein” (PLoS Pathogens, 2017).

This test concerns the target T1, holo human lactoferrin (iron-loaded hLf) (human).
T1 construct: human lactoferrin, iron-loaded (holo) form; Iron-loaded form; also called holo-hLf; holo-Lf; source: bought: Agennix (named for XL-MS)
Put plainly: BLI; Octet RED 96; biotinylated MBP-LbpB constructs loaded from crude E. coli extracts on streptavidin sensors; holo-hLf 10-800 nM in 1 X PBS pH 7.4, 0.002% Tween-20, 0.1 mg/mL BSA; steady-state fit, apparent KD. Particulars: one partner purified.

B1: LbpB C-terminal lobe with N-terminal biotin acceptor peptide, fused to MBP (BLI construct) (domain or fragment)
chain: ENAADTKPALSSGKHTKILDSLKISVDEASDKNPREFAISSMPDFGHPDKLLVEGREIPLVNKEQTIELADGRKTTIRTCCDFLTYVKIGRMQTERPAAKPKAQDEERDEEDTGVDSVEEGEDEIDDEEGTEDAAVKDEGSEEDEAVEGEDEAEEPEEESPTEEGGSGSDGILPAPEAPKGRNIDLFLKGIRTAETDIPKTGEAHYTGTWEARIGKPIQWDNQADKEAAKAVFTVDFGKKSISGTLTEENGVEPAFHIENGKIEGNGFYATARTRENGINLSGNGSTDPKTFQASNLRVEGGFYGPQAEELGGIIFNNDGKSLGITEGTENKVDVEAEVDAEVDVGKQLESEVKHQFGVVFGAKKDMQEVEK
modifications: biotin on the biotin acceptor peptide
Take B1: the Kd was determined as 279 ± 15 nM.
